# Experimental data as given in patent publication US8992932B2 (Seattle Genetics, Inc., dated 2015).
# B1: ADC of Example 55 (antibody, V domains shown)
# VH: EVQLLESGGGLVQPGGSLRLSCAASGFTFSDYQMTWIRQTPGKGLEWVSGISWNGGSTHYADSVKGRFTISRDNSKNTLYLQMNSLRAEDTAVYYCAKGDYLVYSSYYFKSWGQGTLVTVSS
# VL: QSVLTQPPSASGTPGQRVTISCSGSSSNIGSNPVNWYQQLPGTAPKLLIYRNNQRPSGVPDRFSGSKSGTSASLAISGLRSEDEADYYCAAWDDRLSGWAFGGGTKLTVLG
# modifications: toxophore-linker on Cys (via S); toxophore-linker on Cys (via S)
# B2: ADC of Example 49 (antibody, V domains shown)
# VH: EVQLLESGGGLVQPGGSLRLSCAASGFTFSSAWMSWVRQAPGKGLEWVSYISSSGSTIYYADSVKGRFTISRDNSKNTLYLQMNSLRAEDTAVYYCAREGLWAFDYWGQGTLVTVSS
# VL: QSVLTQPPSVSGAPGQRVTISCTGSSSNIGAGYVVHWYQQLPGTAPKLLIYDNNKRPSGVPDRFSGSKSGTSASLAISGLRSEDEADYYCAAYDDSLSGPVFGGGTKLTVLG
# modifications: toxophore-linker on Cys (via S); toxophore-linker on Cys (via S)
# B3: ADC of Example 52 (antibody, V domains shown)
# VH: B2 VH
# VL: B2 VL
# modifications: toxophore-linker on Cys (via S); toxophore-linker on Cys (via S)
# B4: ADC of Example 53 (antibody, V domains shown)
# VH: B2 VH
# VL: B2 VL
# modifications: toxophore-linker on Cys (via S); toxophore-linker on Cys (via S)
# Target: T1, C4.4a on A549 cells transfected with the sequence for the complete C4.4a receptor (Homo sapiens)
# T1 chain: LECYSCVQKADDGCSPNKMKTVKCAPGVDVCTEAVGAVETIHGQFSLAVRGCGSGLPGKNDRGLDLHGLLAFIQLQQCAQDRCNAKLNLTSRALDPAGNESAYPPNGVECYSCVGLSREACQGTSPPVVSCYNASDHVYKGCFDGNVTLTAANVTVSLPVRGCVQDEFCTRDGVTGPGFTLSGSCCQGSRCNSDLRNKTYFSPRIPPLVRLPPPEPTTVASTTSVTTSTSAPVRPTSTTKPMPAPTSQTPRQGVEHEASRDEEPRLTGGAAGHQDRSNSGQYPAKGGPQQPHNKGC
# Assay: cell-based or functional assay
row,Binder,IC50 [nM] A549: C4.4a (cell viability) [nM]
1,B1,0.053
2,B2,0.076
3,B3,0.04
4,B4,0.046
